We go through 1 substance from article PMC4833862.

In this assay the target is CthACC (full-length Chaetomium thermophilum acetyl-CoA carboxylase, 1-2,297) (Chaetomium thermophilum). The assay is described as follows: SAXS; 30 mM MOPS pH 7, 200 mM ammonium sulfate, 5% glycerol, 10 mM dithiothreitol; 2.5, 5 and 10 mg/ml, extrapolated to zero concentration.

As a reminder, the stoichiometry N is a count of units in the complex or per binding partner. For “CthACC (full-length Chaetomium thermophilum acetyl-CoA carboxylase, 1-2,297) (enzyme)”, the stoichiometry N was 2.
